From paper PMC6344286 (Arteriosclerosis, thrombosis, and vascular biology, 2019)

Columns and labels:
[1] = molecular target: T1, p47phox, recombinant wild type (human), P14598; assay: non-reducing SDS-PAGE of a disulfide-linked complex; details: remark: other sources report otherwise
T1 chain: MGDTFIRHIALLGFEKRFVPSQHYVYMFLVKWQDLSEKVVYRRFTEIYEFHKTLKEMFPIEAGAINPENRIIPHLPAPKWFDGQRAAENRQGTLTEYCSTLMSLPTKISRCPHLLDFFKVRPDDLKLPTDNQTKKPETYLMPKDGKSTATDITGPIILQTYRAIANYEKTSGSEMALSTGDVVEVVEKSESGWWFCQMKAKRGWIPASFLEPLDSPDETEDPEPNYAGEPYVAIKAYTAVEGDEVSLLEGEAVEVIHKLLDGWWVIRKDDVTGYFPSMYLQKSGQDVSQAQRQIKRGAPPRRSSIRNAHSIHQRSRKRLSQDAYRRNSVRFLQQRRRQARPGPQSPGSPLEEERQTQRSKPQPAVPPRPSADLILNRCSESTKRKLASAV

[2] = molecular target: Protein disulfide isomerase A1 (PDI), recombinant wild type (human, UniProt P07237 18-508); assay: as above
Sequence of Protein disulfide isomerase A1 (PDI), recombinant wild type (P07237 18-508): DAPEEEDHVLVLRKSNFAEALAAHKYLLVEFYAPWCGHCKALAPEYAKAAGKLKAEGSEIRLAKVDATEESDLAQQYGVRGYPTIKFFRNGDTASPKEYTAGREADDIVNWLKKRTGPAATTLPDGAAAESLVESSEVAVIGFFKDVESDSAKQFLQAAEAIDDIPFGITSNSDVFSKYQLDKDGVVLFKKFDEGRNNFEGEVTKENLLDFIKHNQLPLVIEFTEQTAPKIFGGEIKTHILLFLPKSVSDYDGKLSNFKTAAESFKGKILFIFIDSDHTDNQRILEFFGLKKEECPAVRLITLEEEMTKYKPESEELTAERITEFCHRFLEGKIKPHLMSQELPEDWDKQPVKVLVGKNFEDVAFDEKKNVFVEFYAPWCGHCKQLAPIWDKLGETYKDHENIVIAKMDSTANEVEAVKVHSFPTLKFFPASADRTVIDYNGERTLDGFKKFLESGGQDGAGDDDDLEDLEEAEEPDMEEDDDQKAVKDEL

stoichiometry N [1]: 2
binding result [2]: binds
B1: p47phox, recombinant wild type (natural protein, human, UniProt P14598 1-390, looked up)
chain: MGDTFIRHIALLGFEKRFVPSQHYVYMFLVKWQDLSEKVVYRRFTEIYEFHKTLKEMFPIEAGAINPENRIIPHLPAPKWFDGQRAAENRQGTLTEYCSTLMSLPTKISRCPHLLDFFKVRPDDLKLPTDNQTKKPETYLMPKDGKSTATDITGPIILQTYRAIANYEKTSGSEMALSTGDVVEVVEKSESGWWFCQMKAKRGWIPASFLEPLDSPDETEDPEPNYAGEPYVAIKAYTAVEGDEVSLLEGEAVEVIHKLLDGWWVIRKDDVTGYFPSMYLQKSGQDVSQAQRQIKRGAPPRRSSIRNAHSIHQRSRKRLSQDAYRRNSVRFLQQRRRQARPGPQSPGSPLEEERQTQRSKPQPAVPPRPSADLILNRCSESTKRKLASAV
